Test system: K4 kissing-loop RNA reporter
Test: apparent KD of K4 kissing-loop reporter; higher = weaker reporter binding
Conditions: Eterna round: R107
Method: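 RNA-MaP round R107: designed RNA switches with theophylline, tryptophan, arginine or FMN aptamers are transcribed on-chip within common flanks. They are titrated with a labelled K4 kissing-loop RNA reporter in RNA-MaP buffer (100 mM Tris pH 7.5, 80 mM KCl, 4 mM MgCl2), without ligand or with the indicated ligand. Median apparent KD per design.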

[1] = input ligand: theophylline 20 uM
[2] = input ligand: tryptophan 2.4 mM
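Note: bound reporter read as fluorescence of individual clusters on recovered sequencing chips by microscopy, with normalized cluster intensities fitted with a binding model.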

Sequence | apparent KD of K4 kissing-loop reporter (input ligand: FMN 200 uM) [nM] | apparent KD of K4 kissing-loop reporter (input ligand: arginine 13.2 mM) [nM] | apparent KD of K4 kissing-loop reporter (input ligand: none) [nM] | apparent KD of K4 kissing-loop reporter [1] [nM] | apparent KD of K4 kissing-loop reporter [2] [nM]
AUCAGUUCAGCUGAUACCAGUCAGGAGUGAUGUUCCUGCUCGCGUCAGCCGCGUCGACAAGACCCUUGGCAGCAGCUCUAAGUGU [theeternabot_exclusion_KL_Theo_B_40] | 114 | 98.1 | 110 | 103 | 110
AUCCAUAGUGAUGUUGUGAGCGGAGGCACCAAGGAUAUUGCCAGCCCAAGAAGGUGGGUCCCACACACCAGGCAUACAAGUCCGG [theeternabot_exclusion_KL_FMN_A_43] | 1040 | 845 | 1160 | 944 | 837
UGACAUUGCUCAGAUACCAGACAUGAGCAUCAGCCAUGUACCAAGAAAACGUACAUAAAUGUCCCUUGGCAGCUGAGCAAUGUCU [TheoBX 10] | 83.5 | 39.8 | 59.9 | 89 | 63.8
GCUAUGGUAGGAAGGAGCGCUACCUUGUUUUUACGAGUGAUGUUCGGAAGCAGGGUGUUAAAGCAGGUAGGUCGCCUACUAUAGC [Arginine B K4 21] | 192 | 178 | 167 | 205 | 176
UGUGUUUACCUGACUCAGUGAUGUUGAGAAGGAGCGUUCGAAAGAACAGGUAGGUCGCUCAACCUAAAUUCAGGUGAGCACUAAA | 264 | 223 | 376 | 466 | 322
GCCGUAGAUUGAAGGAGCGUUCUUCAGCAUACUUGCAGUGAUGUUGCAUUUUACAUGUAAGAACAGGUAGGUCGCAAUCUACGGC | – | 119 | 412 | 40 | 235
GGGCCUGGGCCCGUAAGGGCCUGGGCCCGUUAGGAUAUGACGUGAUUCAGAAGGGAUGGGUGGAGUGAUGUUCCACCCGAGAGGG [#2 Same State - FMN A Attempt #24 (HarryS)] | 111 | 97.7 | 117 | 88.5 | 96.7
GCCCGGGCGAGUGAUGUUCGCCCACGUGAUACCAGUGCCAUCCAACACCCUUGGCAGCACGCGGGCAGUGAUGUUGCCCUUGUAU [Exclusion Theophylline A GF 4] | 115 | 110 | 122 | 138 | 111
UGUCAUGGAAACAUGAACGUUGAAAUAAAUCGAGGACCGGUACGGCCGCCACUCGUAUAGCGGUCAGUGAUGUUGACUGUAAUAA [KL-SSTryp-A form2 sub9] | 94.9 | 112 | 110 | 132 | 98.7
AACUGUCAAGGACAACAUUACUGAAGUGAUACCAGCAUCGAAAGAUGCCCUUGGCAGCACUGACUUGCAGUGAUGUUGCAAGUAA [BrourdMod 7 - Jieux - Exclusion - Theophylline A] | 211 | 165 | 194 | 200 | 194
UGUGAUGUGUAGUGUUAUGUUUUGCGGGAUACCAGAGUCUUUUUAUUCCCUUGGCAGCUUGAGUGAUGUUUGAUGCUGUUGUUGU [pwwamullin] | 485 | 349 | 461 | 463 | 339
GAACAUAGUAAAGGAUAUUCCUGCCUCGCGCGAUUGAUUAGUGAUGUUGACGAUAUCGCUUUGAGGGAAGAAGGUUAACAAGUCA [theeternabot_exclusion_KL_FMN_B_4] | 761 | 659 | 678 | 478 | 596
GUGGUUUACGUAGGAUAUCGGUGAUGAGUAAAUGGAGUGAUGUUCCGAGAUUGAAUAUGAGAUGAGCGAGAAGGGCGGUUUAUGC [FMN B Same State; Euporia Solution 3] | 60.8 | 77.3 | 63.1 | 89.7 | 54.7
CGCAGUGAUGUUGCUAUUAUUCUUGGUUAACGAGGACCGGUACGGCCGCCACUCGAUUUCUGUCUAGUCCAGUGUUUUUUUGAGU [whbob_EX_Tryp_A_t7] | 363 | 464 | 439 | 492 | 263
AAUAAAAUCACGGCCGCCACUGAAUAAUUACAAAGUAGUGAUGUUACUUUACAUAUCUUAUUUAACAGGACCGGGUGAAUAUUUA [JR_ExcTryptoB_Sub007] | 78.6 | 70.2 | 76.2 | 69.7 | 78.3
UGUCAUUGGUCUGAUACCAGUUGAUAAACUGGAGUGAUGUUCCUCGACGAAUACGUCGACAACCCUUGGCAGCAGACCGAUGACU [TheoBS 14 #SwitchBubble 13 #StaticStem] | 683 | 627 | 713 | 354 | 607

Sequence | apparent KD of K4 kissing-loop reporter (input ligand: FMN 200 uM) [nM] | apparent KD of K4 kissing-loop reporter (input ligand: arginine 13.2 mM) [nM] | apparent KD of K4 kissing-loop reporter (input ligand: none) [nM] | apparent KD of K4 kissing-loop reporter [1] [nM] | apparent KD of K4 kissing-loop reporter [2] [nM]
UCAGUGAUGUUGAACAAAUAAUGGUUCCUAAAGGAUAUCCACAGAUGGAGAAGGUUAGUAGCGGCUCGCACAUCGUAGGACAAAU [theeternabot_exclusion_KL_FMN_A_1] | 767 | 648 | 734 | 602 | 526
GACACACUUUCAGGUGUCCAGUGACUGGAUACCAGCAUGGAAACAUGCCCUUGGCAGCCAGAACUGGAAGUGAUGUUUCCAGUAA [Theo A Mod Design7 (Brourd)] | 380 | 241 | 346 | 262 | 330
AGACUACUGACAGGAUAUAACAUCCUAGUCGUAUACCGAAAGGUAUACGAUUCCCUUCUAGUGAUGUUAGAAGGGUCGGUAGUCA [Omei KL FMN B Exc B v13] | 151 | 93.4 | 103 | 98.9 | 101
AAGGCACGGCUUCGGCCGUGCCAAAUAGAUACCAGCAUAAUAAUAUGCCCUUGGCAGCUAAAUAUAAAUUCAGUGAUGUUGGAUA [SS Theo A Tesla 2.2] | 573 | 412 | 604 | 649 | 546
UGACUACAAAAGGAAUAAUCCUAGUGAUGUUAGGAUAUGCUGAUAAGCAGAAGGAACGGAGAUCGAAGGAUCUCAUAUGUAGUCU [whbob_Ex_FMNA__2th193] | 170 | 92.1 | 86.9 | 117 | 89
UCUCAGGAGUGAUGUUCCGUAGGUGGAAGGAAGGAUAUCUAAUGGCAGAGAAGGUCCAUCCUUGCUCGUAUCAGUGCCGGGAAGC [theeternabot_exclusion_KL_FMN_A_13] | 282 | 251 | 232 | 304 | 168
UGCCGGAAGGCGAGCGCUCCCACUCCGGAAGGAGCGCCCGUAAGGGCAGGUAGGUCGCCGGAGUGAUGUUCCGGUGGAGGGCUCG [#2 Exclusion - Arginine A Attempt #22 (Inspired by Omei)] | 203 | 128 | 193 | 185 | 244
UAACUUGCAGUGAUGUUGCAAGAACUGGAUACCAGCAUGGAAACAUGCCCUUGGCAGCCAGAAGGUAUCCUCUUGCAUAGAUACU [Design3] | 216 | 178 | 195 | 220 | 192
UUUUUGGUUUAGAGUGAUGUUCCUUGUAUUCGAGGACCGGUACGGCCGCCACUCGAAUAGAAAAGAAAAGAAAAGAGUGAUGUUU [BDazzled - #3 SS Tryptophan A] | 308 | 229 | 292 | 356 | 252
CCAGAAUGAUGAAGAUGAUAAAUUACUGAAGGAGCGCAUAUAGUUGCAGGUAGGUCGCGGUGAAUAAGUAUAGUGAUGUUAUACC [SSArgA.Ac] | 265 | 167 | 221 | 217 | 204
AAAUAAAUCACGGCCGCCACUGUAAGUUGAAGUGAUGUUUCAAGAUAUAGUAUGUUUUAUAAUAUCAGGACCGGGUGAUUUUUAA [JR_SSTryptoB_Sub021] | 147 | 103 | 133 | 115 | 119
GCCGUAGAUUGAAGGAGCGGACUUAUAGGUCUUAAGGAGUGAUGUUCCUGACACUCGGCGGUCCAGGUAGGUCGCAAUCUACGGC | 296 | 269 | 320 | 252 | 272
CUCGUGGGUUUGAGAGGGCUUGUGGGAAGUGAGGAUAUUUAGGGAGGGAGAAGGUACUAUAGAAUAUAGUGAUGUUAUAUAUGGG [SSFMNA.U] | 264 | 138 | 185 | 111 | 147
GGAUCCACCAGUGAUGUUGGAGAAAACUUCAAGGAUAUGACGAAAGUCAGAAGGUGAUAGACUGGACAAAGUCCGGUCGGAUCCA [FmnA 19 U29+A57] | 552 | 729 | 454 | 527 | 462
AAAAUUAACAAGAGUGAUGUUCUUGUUAGACAGGAUAUCGGUUUAACGAGAAGGGUCGUGGCUCCAUUGGGCCCAGUGGUUCACC [Mazareri] | 309 | 478 | 687 | 326 | 439
UGUAUUUCGGCGGCCGCCACUGACCAUAGCCUUCGAUGGCCAGUGAUGUUGGCCUCUGGCUCUAACAGGACCGGGCCGAAUUGCG [Usvediin] | 303 | 165 | 190 | 168 | 132

— the supplement of paper PMC9170038
